Blank lines part the entries; values can stand above or below the molecule they belong to.
How the values were obtained:
[1] = biological target: T1, Formate dehydrogenase from Candida boidinii (CbFDH) ([Candida] boidinii, UniProt A0A0A1EQY0); experiment: ITC and crystal structure of the ternary complex with azide at […] Å; type: binding
T1 sequence (A0A0A1EQY0 1-364): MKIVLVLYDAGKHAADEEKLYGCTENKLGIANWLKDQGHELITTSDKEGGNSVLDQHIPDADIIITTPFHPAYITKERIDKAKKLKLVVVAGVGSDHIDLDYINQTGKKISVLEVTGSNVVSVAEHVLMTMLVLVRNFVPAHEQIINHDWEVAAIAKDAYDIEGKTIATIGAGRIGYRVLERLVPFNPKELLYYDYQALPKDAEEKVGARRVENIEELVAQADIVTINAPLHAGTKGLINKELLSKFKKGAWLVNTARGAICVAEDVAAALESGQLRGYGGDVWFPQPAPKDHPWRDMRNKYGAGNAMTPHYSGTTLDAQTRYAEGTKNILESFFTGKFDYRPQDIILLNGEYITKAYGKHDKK

[2] = substrate: O=CO; experiment: purified protein; type: biochemical, [Candida] boidinii; settings: NAD+

Kd [1]: 92 ± 4 µM
Molecule: NC(=O)c1ccc[n+]([C@@H]2O[C@H](COP(=O)([O-])OP(=O)(O)OC[C@H]3O[C@@H](n4cnc5c(N)ncnc54)[C@H](O)[C@@H]3O)[C@@H](O)[C@H]2O)c1 [NAD+]

B1: Formate dehydrogenase from Candida boidinii (CbFDH) ([Candida] boidinii) (protein)
chain: T1 sequence (A0A0A1EQY0 1-364)
kcat [2]: 5.6 ± 0.2 s⁻¹ | kcat/Km [2]: 1400 ± 200 M⁻¹ s⁻¹

— publication PMC4917879 (Biochemistry, 2016)
